Measured values as given in patent US20130330342A1 (CENTRE NATIONAL DE LA RECHERCHE SCIENTIFIQUE CNRS, published 2013).

Target: T1, CD8-Stop (UniProt P01732 22-203, limits assumed)
T1 construct: domain: CD8 receptor devoid of cytoplasmic domain; Control expressed in HeLa or 293T cells; also called CD8 protein devoid of cytoplasmic domain; control CD8-Stop protein
Assay: co-immunoprecipitation from 293T cells (anti-CD8 IP, anti-c-myc blot)
Experimental: The direct recognition of Nef by sdAb Nef19 was explored at the cell level by means of coimmuno-precipitation experiments. […] These constructs have been previously described (Janvier et al., 2003a,b; Madrid et al., 2005). The same type of experiment was also carried out on cells coexpressing the sdAb and the CD8 protein devoid of cytoplasmic domain (CD8-Stop) used as a control. 24 h after transfection, the cells were lyzed in a buffer containing 100 mM of (NH₄)₂SO₄, 20 mM of Tris (pH 7.5), 10% of glycerol, 1% of IGEPAL and a cocktail of protease inhibitors (Roche). The cell lyzate (600 μg of total proteins) was incubated for 1 h at 4° C. with 3 μg of the anti-CD8 Ab (32M4, Santa Cruz) and 30 μl of beads coated with protein A-sepharose. The immunoprecipitates were then analyzed by immunoblotting using an anti-CD8 Ab (H160, Santa Cruz) and an anti-c-myc Ab (9E10).

T1 sequence (P01732 22-203 limits assumed): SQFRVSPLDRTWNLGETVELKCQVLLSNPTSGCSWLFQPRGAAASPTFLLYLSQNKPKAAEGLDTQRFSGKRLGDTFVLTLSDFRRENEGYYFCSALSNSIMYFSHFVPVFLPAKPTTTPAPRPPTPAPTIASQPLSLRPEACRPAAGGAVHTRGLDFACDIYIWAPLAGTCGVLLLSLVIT

B1: sdAb Nef19 (VHH)
VHH: EVQLVESGGGLVQPGGSLKLSCAASGSIFRANAMRWYRQAPGKQREWVASVISDDFTDYVDSVRGRFTISKDNAQNTVYLQMNSLKPEDTAVYYCNAQLGGVNYWGQGTQVTVSS
notes: Llama VHH from the immune library; The soluble form carries C-terminal c-myc and 6His tags and is detected with mAb 9E10; also called sdAb Nef19P; sdAb Nef19C
B1: no binding.
